Reference: patent US20120141451A1
pKd: −log10 of the molar value.

Columns and labels:
[1] = biological target: rat NCAM F3 modules 1-2 (rat) (UniProt P13596); assay: SPR (BIAcore2000), soluble FGFR Ig2 on immobilized NCAM F3 modules 1-2
[2] = biological target: Ig2 module of mouse FGFR1 (IIIc isoform) (mouse) (UniProt P16092); assay: SPR (BIAcore2000), soluble NCAM F3 modules 1-2 on immobilized FGFR Ig2
Sequence of Ig2 module of mouse FGFR1 (IIIc isoform) (mouse) (P16092 other isoform, or with tags, fused parts or gaps limits assumed, form in doubt): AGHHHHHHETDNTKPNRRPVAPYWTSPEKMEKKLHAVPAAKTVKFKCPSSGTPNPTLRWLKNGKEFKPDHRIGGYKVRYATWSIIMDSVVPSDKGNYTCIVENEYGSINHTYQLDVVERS

Sequence of rat NCAM F3 modules 1-2 (rat) (P13596 other isoform, or with tags, fused parts or gaps limits assumed, form in doubt): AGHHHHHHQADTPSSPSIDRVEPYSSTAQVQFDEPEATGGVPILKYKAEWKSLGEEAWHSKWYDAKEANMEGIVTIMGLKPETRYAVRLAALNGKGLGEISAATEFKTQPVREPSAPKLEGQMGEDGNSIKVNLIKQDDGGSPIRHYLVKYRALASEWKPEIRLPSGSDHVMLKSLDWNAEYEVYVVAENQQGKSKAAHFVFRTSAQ

pKd [1] | pKd [2] | Substance
4.46 | – | Ig2 module of mouse FGFR1 (IIIc isoform) (from UniProt P16092 140-251) (receptor)
– | 4.92 | rat NCAM F3 modules 1-2 (from UniProt P13596 507-705) (receptor)
